Experimental data taken from publication PMC6915088, “Biosynthesis of the Stress-Protectant and Chemical Chaperon Ectoine: Biochemistry of the Transaminase EctB” (Frontiers in Microbiology, 2019).

Legend:
(Pl)EctB = molecular target: T1, (Pl)EctB (Paenibacillus lautus, UniProt A0A385TGF8); experiment: activation of apo-enzyme by added PLP, L-glutamate formation by HPLC; assay type: biochemical; conditions: 10 mM DAB, 15 mM 2-oxoglutarate, 100 mM Tris-HCl pH 7.0, 100 mM NaCl, 45 °C, 1 min; titration curve only, no constant; Schiff base at Lys274 inferred
T1 construct: full length; N-terminal Strep-tag II (WSHPQFEK) with linker SGMIEGR (factor Xa site), plasmid pAR8; no tag removal described; E. coli BL21; homotetramer; purified as apo-protein, PLP added

[1] = molecular target: the molecule itself; experiment: SEC-MALS; S200 300/10 GL analytical column with MALS and RI detectors, 4°C; 100 μL sample at 100 μM protein; 20 mM HEPES pH 7.5, 200 mM NaCl, 20 mM MgCl2, 20 mM KCl

| Molecule | activation of apo-enzyme by added PLP, L-glutamate formation by HPLC ((Pl)EctB) | stoichiometry N [1] |
| --- | --- | --- |
| Cc1ncc(COP(=O)(O)O)c(C=O)c1O [PLP] | the specific activity of (Pl)EctB strictly relies on the addition of PLP |  |
| (Pl)EctB, L-2,4-diaminobutyrate transaminase EctB from Paenibacillus lautus (enzyme, Paenibacillus lautus strain Y412MC10, UniProt A0A385TGF8 1-430, looked up, EctB (L-2,4-diaminobutyrate transaminase) of Paenibacillus lautus strain Y412MC10; codon-optimized synthetic ectB gene; calculated mass 49.1 kDa including the Strep-tag II peptide and linker; The protein was purified as an apo-protein without PLP; also called (Pl)EctB wild-type protein; P. lautus EctB; not shown: Strep-tag II, N-terminal, kept) MDNQVMEKPKLTVFNKLESEVRSYCRSFQTVFDKARNAKLWDTQGNEYIDFFAGAGALNYGHNNERIREKLVDYILQDGVTHSLDMATGAKETFLTRFQEIILKPRGWDHKVMFPGPTGTNAVEAALKIARKVTGRSTVLCFTNAFHGMSLGSLAVTGNAFKRQGAGVDLSHSVFMPYDGYFGSDVDTMAYMEKLLDDPGSGIPLPAAVIVEAVQGEGGLNAASRQWLQKLARICKDKGMLLILDDIQMGCGRTGSFFSFDDAGIEPDIVCLSKSIGGFGLPMAITLIKPEIDIWEPGEHNGTFRGNNLGFVAAAEALSYWKTEEFQLDIGIREHRIRQSLENVVREYPRLGGEIRGRGMIQGVAFDKPEHAGRLSEIAFEQGLIMETSGPHSEVAKLMPPLTIEMNTLAEGLGIFENSMKQLAAEERLS |  | 4 |
| (Pl)EctB Lys274/His variant (enzyme, Paenibacillus lautus strain Y412MC10, UniProt A0A385TGF8 1-430, looked up, EctB (L-2,4-diaminobutyrate transaminase) of Paenibacillus lautus strain Y412MC10; codon-optimized synthetic ectB gene with Lys274 changed to His (AAA/CAT) by site-directed mutagenesis of pAR8; not shown: Strep-tag II, N-terminal, kept) MDNQVMEKPKLTVFNKLESEVRSYCRSFQTVFDKARNAKLWDTQGNEYIDFFAGAGALNYGHNNERIREKLVDYILQDGVTHSLDMATGAKETFLTRFQEIILKPRGWDHKVMFPGPTGTNAVEAALKIARKVTGRSTVLCFTNAFHGMSLGSLAVTGNAFKRQGAGVDLSHSVFMPYDGYFGSDVDTMAYMEKLLDDPGSGIPLPAAVIVEAVQGEGGLNAASRQWLQKLARICKDKGMLLILDDIQMGCGRTGSFFSFDDAGIEPDIVCLSHSIGGFGLPMAITLIKPEIDIWEPGEHNGTFRGNNLGFVAAAEALSYWKTEEFQLDIGIREHRIRQSLENVVREYPRLGGEIRGRGMIQGVAFDKPEHAGRLSEIAFEQGLIMETSGPHSEVAKLMPPLTIEMNTLAEGLGIFENSMKQLAAEERLS |  | 4 |
